{"source": "patent US20010039026A1", "about": "“Assay method” (priority 2000, published 2001)", "origin": "cited, not measured here", "molecules": {"B1": {"name": "MIP-1-β: macrophage inflammatory protein, β-chemokine ligand of CCR5 (protein, UniProt P13236 24-92, looked up)", "C-C motif chemokine 4": "APMGSDPPTACCFSYTARKLPRNFVVDYYETSSLCSQPAVVFQTKRSKQVCADPSESWVQEYVYDLELN"}}, "key": {"[1]": {"test_system": "primary, nonsyncytium-inducing (NSI) HIV-1 strains", "details": "primary NSI HIV-1 strains"}, "[2]": {"target": "T1, CCCKR5 (Homo sapiens, UniProt P51681)", "T1 construct": "expressed in transfected cells; host or cells: CHO-K1 (stably transfected)", "T1 sequence (P51681 whole entry)": "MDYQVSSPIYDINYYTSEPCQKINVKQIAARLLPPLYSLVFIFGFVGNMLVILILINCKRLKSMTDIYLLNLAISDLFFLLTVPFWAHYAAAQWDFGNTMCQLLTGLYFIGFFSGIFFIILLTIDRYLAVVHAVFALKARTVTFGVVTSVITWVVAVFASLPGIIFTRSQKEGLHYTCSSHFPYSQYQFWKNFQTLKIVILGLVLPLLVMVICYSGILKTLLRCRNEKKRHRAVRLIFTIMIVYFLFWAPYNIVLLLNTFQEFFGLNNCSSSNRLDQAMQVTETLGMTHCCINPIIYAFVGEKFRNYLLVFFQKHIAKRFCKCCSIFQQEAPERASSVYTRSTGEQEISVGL", "details": "transfected CHO-K1 cells"}, "[3]": {"test_system": "env-mediated cell-cell fusion"}}}
{"molecule": "B1", "values": [{"measurement": "inhibition of infection of CD4(+) cells at the virus entry stage", "setting": "[1]", "result": "inhibit infection"}, {"measurement": "agonist activity at CCCKR5", "setting": "[2]", "result": "active at physiologic concentrations"}, {"measurement": "block of env-mediated cell-cell fusion", "setting": "[3]", "result": "block env-mediated cell-cell fusion"}]}
